Experiments:
Assay in all cases: co-IP
[1] = target: Vps13^N1 (Vps13^GFP, conserved asparagine of VAB repeat 1 to alanine) (S. cerevisiae) (UniProt Q07878)
[2] = target: Vps13^N2,3,4S (Vps13^GFP, conserved asparagines of VAB repeats 2, 3 and 4 to serine) (S. cerevisiae) (UniProt Q07878)
[3] = target: Vps13^N3 (Vps13^GFP, conserved asparagine of VAB repeat 3 to alanine) (S. cerevisiae) (UniProt Q07878)
[4] = target: Vps13^N4 (Vps13^GFP, conserved asparagine of VAB repeat 4 to alanine) (S. cerevisiae, UniProt Q07878 1-3144, Vps13^N4A (N2216))
[5] = target: Vps13^N4S (Vps13^GFP N2216S, models VPS13B N2993S) (S. cerevisiae, UniProt Q07878 1-3144, Vps13^N4S (N2216))

pull-down relative to WT [1] [%] | recovery relative to WT [2] [%] | recovery relative to WT [1] [%] | recovery relative to WT [3] [%] | recovery relative to WT [4] [%] | pull-down relative to WT [5] [%] | Binder
41 | 42 |  |  |  |  | Spo71-3HA (natural protein) MDSIVNVVEDDVKYAQRVTSFSSPQNANVKVFTIPRHSFTAFRLSYVSPTELSACSQVTLLGGIPKQWYADQNNQVWKLLTKISLRKVRKQSDMLRRYGYGTIYKKRVGKIPTALYLRKHFTWSYEDNTSIHNGHRLKEAEMEMKRTRSSPVQKSEYKLSLPRRCRSSSDQNFMRQELLKEKKSELSRNNSLPLIDTAQAVDIHPVLHEEDQENTNKRNKSLLSNLKRKDLGESKSISRKDYSHFDRIPSPSSARSVGETDFNYNREPSEDTLRYPDSIIEVTNRTSPAPNSILSRSGQFVNSNDLSDGFSTSNTINNVGLNANEKIFFNALQSMEKENLMLWKTSQKYGTYLDERRKSADAFQKRERGSCVDIGKLHSSHLPFINILPPWPTELTEEERIIHDRLASKHSHHIRKHVHNARNKTSCKIKDSVGTFLGMTNSLTNKATVKKRTGQILKKEKMLVMVKEAIQNKVPLPNFSENECFDTRVSERWKEYIVIARSTGRFDPPILLQFYRHRHIPEIEDISSIATKYHRNPLDFFLSRNCIVKFYSSLDKTISIQKPDKRLGGFIDESIEKKDELKHYSPIKIFILRCSSIRSSGRWYKFLLESLDRQLFTPAINLKIPLTEISIKINLNEIIFQKLIDLGKQEKDRLKICFLQRGYKIFQHPILRYFTVAILEKLKLAHYDYLIRKWDTENPVLGCALKRYDRLEWIPCDEDSLVTGIFAFCQSHLIQYRPIANRLRETKSLEGKCLKEPTPIEGFLIRLTDKYGSARTNFGKYSISTAYFFTCENLLFSMKAYRANPPLPIDSMIDDTSTEIEKEEIWKQWKKIPEVYEQQPYPLDTNDHIEWMNCQTTQSEYDSRDFYAFHCFHRRIDQILKTDNVIDLTEVKDIYQGTRTDYEADKIKYGVYKEASEIFWHRNYEIDDVSRSVINIETSNGLLLKLLATSATVAEEWVIKLKQMISYWKNKQREDTERLLKIRRSNAGLLMLNGEEETKIGENTLRWIVEHGRADEQTFNANGISLSRPLIQKGPLYQKPHKHSVFSKYYVVLISGFIVLFHCFHRSTTGFAKEVLEYAHYVTIPIDDCYLYSGTTTELDLLQRDRTFDEINYGSHALPRVYGDGWRSVEDESSRCFTLWFGTRRALSSNRLQKKGNEKQYTQDYGRQDNNIDPPSAPEADLNNSNVPSNTDKIHFTKKLGVSGKSMVFMARSRQERDLWVMSIYYELERLRRTASTSNSRNQTM
 |  | 24 | 67 | 42 | 77 | Mcp1-3HA (natural protein, S. cerevisiae, UniProt Q12106 1-302, looked up) MIKLHEVPPEPVDPASLPHDVNAHSPEGDGNPDKRKKIFGIPYPFSRSSCRRFLWNCQKISVLPMALYFPLHAANTLITPAVSPDSAPDDVLMMVREILPSITTKLLVAGITLHVSAGVLLRIVNNWNKPRRNRHRHLKISAEQDLSQDSIGLTGGISGYLFGLYKTFRIPPQVISGYILVPVLIYHLLIMKWVPNSISTEVDFASIKQLLSSKNRWWKWLGGLVPLAILLESGVYHIGSGLCRYFGVRKMTSRKKWSTAINLLTLVGFVSLIRLMKEDSTKLGPNQFESIFKKIRLLLHVN
 |  | 24 |  |  |  | Ypt35-3HA (natural protein) MSDKISFLPPEPIQLLDEDSTEPELDIDSQQENEGPISASNSNDSTSHSNDCGATITRTRPRRSSSINANFSFQKAHVSDCTIVNGDHGTKFAVWRITVFLEPNLKAFAAKRESYKIQTYKRYSDFVRLRENLLTRIKTAKPEKLNCLQIPHLPPSVQWYSSWKYQEVNLNKDWLAKRQRGLEYFLNHIILNSSLVEMTKDILIQFLEPSKRVA

— PMC7068118 (Human Molecular Genetics, 2020)
